Reference: US20180346555A1 (Regeneron, published 2018)

Columns and labels:
natural Bet v 1 [1] = biological target: T1, natural Bet v 1 (Betula verrucosa (Betula pendula), UniProt P15494 2-160); assay: SPR Biacore 4000, mAb captured on anti-human Fc, 37C;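 also: kinetic rate constants from SPR sensorgrams fitted to a 1:1 model with mass transport limitation, HBS-ET buffer pH 7.4, KD and t½ derived from the rate constants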
T1 construct: Bought natural protein; also called nBet v 1
T1 chain: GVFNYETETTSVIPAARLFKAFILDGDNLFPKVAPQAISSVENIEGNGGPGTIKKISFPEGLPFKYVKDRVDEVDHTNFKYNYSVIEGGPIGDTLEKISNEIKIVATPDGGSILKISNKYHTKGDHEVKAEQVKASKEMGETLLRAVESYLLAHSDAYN
Experimental: (§1) Equilibrium dissociation constants (KD) for natural Bet v 1 binding to purified anti-Bet v 1 monoclonal antibodies were determined using a real-time surface plasmon resonance biosensor (SPR-Biacore) on a Biacore 4000 instrument. All binding studies were performed in 10 mM HEPES, 150 mM NaCl, 3 mM EDTA, and 0.05% v/v surfactant Tween-20, pH 7.4 (HBS-ET) running buffer at 25° C. and 37° C. […] Association (kₐ) and dissociation (kd) rate constants were determined by fitting the real-time binding sensorgrams to a 1:1 binding model with mass transport limitation using Scrubber 2.0c curve-fitting software. Binding dissociation equilibrium constants (KD) and dissociative half-lives (t½) were calculated from the kinetic rate constants as:

natural Bet v 1 [2] = biological target: T1, natural Bet v 1; assay: SPR Biacore 4000, mAb captured on anti-human Fc, 25C;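 also: purified anti-Bet v 1 mAbs probed with natural Bet v 1 in HBS-ET buffer (HEPES, NaCl, EDTA, Tween-20) at pH 7.4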
Experimental: as §1

B1: H4H16967P (antibody, human IgG4, V domains shown)
VH: QVQLVESGGGVVQPGRSLRLSCAASGFTFSSYGMHWFRQAPGKGLEWVGVIWSDGSDKKYADSVKGRFTISRDNSKNTLYLLMNSLRDDDTAVYHCAREGGFLYSSSSHFDYWGQGTLVTVSS
VL: AIQMTQSPSSLSASVGDRVTITCRTSQGIRNDLGWYQQKPGKAPKLLIFAASSLQSGVPSRFSGSGSGTDFTLTISSLQPEDFAIYYCLQDYKYPFTFGGGTKVEIK
- 100 nM natural Bet v 1 Bound (RU) (natural Bet v 1 [1]): 45 RU
- Kd (natural Bet v 1 [1]): 14.3 nM
- koff (natural Bet v 1 [1]): 0.000719 s⁻¹
- kon (natural Bet v 1 [1]): 50400 M⁻¹ s⁻¹
- t½ (natural Bet v 1 [1]): 16 min
- 100 nM natural Bet v 1 Bound (RU) (natural Bet v 1 [2]): 27 RU
- Kd (natural Bet v 1 [2]): 3.98 nM
- koff (natural Bet v 1 [2]): 0.000149 s⁻¹
- kon (natural Bet v 1 [2]): 37600 M⁻¹ s⁻¹
- t½ (natural Bet v 1 [2]): 77 min

B2: H4H16960P (antibody, human IgG4, V domains shown)
VH: QLQLQESGPGLVRPSETLSLTCTVSGGSISSSNYWWGWIRQPPGKGLEWIGSIYYSGITYYNPSLKSRVTISADTSKDQFSLKLRSVTAADTAVYYCAKLEWLRLDFWGQGTTVTVSS
VL: DIQMTQSPSSVSASVGDRVTITCRASQGISSWLVWYQQKPGKVPKLLIYAASSLQSGVPLRFSGSGSGTDFTLTISSLQPEDFATYYCQQAKSFPLTFGQGTRLEIK
- 100 nM natural Bet v 1 Bound (RU) (natural Bet v 1 [1]): 65 RU
- Kd (natural Bet v 1 [1]): 2.54 nM
- koff (natural Bet v 1 [1]): 0.00168 s⁻¹
- kon (natural Bet v 1 [1]): 662000 M⁻¹ s⁻¹
- t½ (natural Bet v 1 [1]): 6.8 min
- 100 nM natural Bet v 1 Bound (RU) (natural Bet v 1 [2]): 57 RU
- Kd (natural Bet v 1 [2]): 1.64 nM
- koff (natural Bet v 1 [2]): 0.00069 s⁻¹
- kon (natural Bet v 1 [2]): 422000 M⁻¹ s⁻¹
- t½ (natural Bet v 1 [2]): 17 min

B3: H4H16991P (antibody, human IgG4, V domains shown)
VH: QVQLVQSGAEVRKPGASVKVSCKASGYTFTGYYLHWVRQAPGQGLEWMGLINPNTGGTNFAQKFQGRVTMTRDSSISAAYMELSRLRSDDTAVYYCARQHWNRYFDNWGQGTLVTVSS
VL: DIQMTQSPSTLSASVGDRVTITCRASQSVGNWLAWYQQKPGKAPKLLIQEASSIESGVPSRFSGSGSGTEFTLIVSSLQPDDFATYYCQQYNSYSWTFGHGTKVEIK
- 100 nM natural Bet v 1 Bound (RU) (natural Bet v 1 [1]): 66 RU
- Kd (natural Bet v 1 [1]): 2.16 nM
- koff (natural Bet v 1 [1]): 0.00108 s⁻¹
- kon (natural Bet v 1 [1]): 500000 M⁻¹ s⁻¹
- t½ (natural Bet v 1 [1]): 11 min
- 100 nM natural Bet v 1 Bound (RU) (natural Bet v 1 [2]): 57 RU
- Kd (natural Bet v 1 [2]): 1.06 nM
- koff (natural Bet v 1 [2]): 0.000312 s⁻¹
- kon (natural Bet v 1 [2]): 295000 M⁻¹ s⁻¹
- t½ (natural Bet v 1 [2]): 37 min

B4: H4H16979P (antibody, human IgG4, V domains shown)
VH: QVQLVQSGAEVKKPGASVKVSCKASGYTFIAYYLHWVRQAPGQGLEWMGLLNPYTGGSYYTQKFQGRVTMTRDTSIDTAYMELNSLRSDDTAIYYCARDKRSYYIPYAFEIWGQGTMVTVSS
VL: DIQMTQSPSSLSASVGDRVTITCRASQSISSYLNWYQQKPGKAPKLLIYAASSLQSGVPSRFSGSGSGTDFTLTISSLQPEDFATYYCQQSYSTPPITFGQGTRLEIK
- 100 nM natural Bet v 1 Bound (RU) (natural Bet v 1 [1]): 52 RU
- Kd (natural Bet v 1 [1]): 1.8 nM
- koff (natural Bet v 1 [1]): 0.000616 s⁻¹
- kon (natural Bet v 1 [1]): 342000 M⁻¹ s⁻¹
- t½ (natural Bet v 1 [1]): 19 min
- 100 nM natural Bet v 1 Bound (RU) (natural Bet v 1 [2]): 41 RU
- Kd (natural Bet v 1 [2]): 1.21 nM
- koff (natural Bet v 1 [2]): 0.000278 s⁻¹
- kon (natural Bet v 1 [2]): 230000 M⁻¹ s⁻¹
- t½ (natural Bet v 1 [2]): 42 min

B5: H4H17015P (antibody, human IgG4, V domains shown)
VH: QVQLQESGPGLVKPSQTLSLTCTVSGGSISSADHYWSWIRQQPGKGLEWIGYISYRGTTYYNPTLESRVSISVDTFKNQFSLMLHSVTVADTAVYYCAKVLQGLVRFRDYGFDVWGQGTTVTVSS
VL: DIQLTQSPPFLSASVGDRVTITCWASQDISSYLAWYQQNPGKSPKLLIYDAFTLHTGVPSRFSGSGSGTEFTLTISSLQPEDFATFYCQHLYSFPFTFGPGTKVDIK
- 100 nM natural Bet v 1 Bound (RU) (natural Bet v 1 [1]): 84 RU
- Kd (natural Bet v 1 [1]): 2.7 nM
- koff (natural Bet v 1 [1]): 0.000792 s⁻¹
- kon (natural Bet v 1 [1]): 293000 M⁻¹ s⁻¹
- t½ (natural Bet v 1 [1]): 15 min
- 100 nM natural Bet v 1 Bound (RU) (natural Bet v 1 [2]): 68 RU
- Kd (natural Bet v 1 [2]): 1.34 nM
- koff (natural Bet v 1 [2]): 0.000246 s⁻¹
- kon (natural Bet v 1 [2]): 184000 M⁻¹ s⁻¹
- t½ (natural Bet v 1 [2]): 47 min

B6: H4H16987P (antibody, human IgG4 S228P, kappa, V domains shown)
VH: EVQLVESGGGLVQPGGSLRLSCAASGFTVSSNSMSWVRQAPGEGLEWVSVIFSGGITYYSDSVKGRFTISRHNSKNTLYLQMNSLRTEDTAVYYCARHSNWNFDAFDIWGQGTMVTVSS
VL: DIQMTQSPSSLSASVGDRVTITCRASQSFDTYLNWYQQKPGKAPNLLIYATSSLQSGVPSRFSGSGSGTDFTLTISSLQPEDFGTYYCQQSYSIPYTFGQGTKLEIKR
notes: Human IgG4; also called MAB4
- 100 nM natural Bet v 1 Bound (RU) (natural Bet v 1 [1]): 74 RU
- Kd (natural Bet v 1 [1]): 9.16 nM
- koff (natural Bet v 1 [1]): 0.00477 s⁻¹
- kon (natural Bet v 1 [1]): 520000 M⁻¹ s⁻¹
- t½ (natural Bet v 1 [1]): 2.4 min
- 100 nM natural Bet v 1 Bound (RU) (natural Bet v 1 [2]): 61 RU
- Kd (natural Bet v 1 [2]): 2.77 nM
- koff (natural Bet v 1 [2]): 0.00114 s⁻¹
- kon (natural Bet v 1 [2]): 410000 M⁻¹ s⁻¹
- t½ (natural Bet v 1 [2]): 10 min

B7: H4H16943P (antibody, human IgG4, V domains shown)
VH: EVQLVESGGGLVQPGGSLRLSCTASGFMSSMYWMSWVRQAPGKGLEWVSNIKQDGTEKNYVESVKGRFTISRDNAKNSLYLQINSLRGEDTAVYYCARDLYSSSSGYYYYGLDVWGQGTTVTVSS
VL: DIVMTQSPLSLPVTPGEPASISCRSSQSLLHSNKYNYLDWYLQKPGQSPQLLIYLSSNRASGVPDRFSGSGSGTEFTLKISRVEAEDVGIYYCMQALHTPLTFGGGTKVEIK
notes: Fully human antibody
- 100 nM natural Bet v 1 Bound (RU) (natural Bet v 1 [1]): 88 RU
- Kd (natural Bet v 1 [1]): 4.89 nM
- koff (natural Bet v 1 [1]): 0.00127 s⁻¹
- kon (natural Bet v 1 [1]): 260000 M⁻¹ s⁻¹
- t½ (natural Bet v 1 [1]): 9.1 min
- 100 nM natural Bet v 1 Bound (RU) (natural Bet v 1 [2]): 71 RU
- Kd (natural Bet v 1 [2]): 1.4 nM
- koff (natural Bet v 1 [2]): 0.00023 s⁻¹
- kon (natural Bet v 1 [2]): 164000 M⁻¹ s⁻¹
- t½ (natural Bet v 1 [2]): 50 min

B8: H4H16946P (antibody, human IgG4, V domains shown)
VH: EVQLVESGGGLVQPGGSLRLSCVASGFTFSNYDMNWVRQAPGEGLEWISYISYSDHNIYYIDSVKGRFTISRDNAKNSLYLQMNSLRAEDTAIYYCAREALASSSFDYWGQGTLVTVSS
VL: EIVMTQSPATLSVSPGERVTLSCRASQSVSGNLAWYQQKPGQAPRLLIYSASTGATGVPARFSGSGSGTEFTLTISSLQSEDFALYYCQQYNKWPRTIGQGTKVEIK
- 100 nM natural Bet v 1 Bound (RU) (natural Bet v 1 [1]): 93 RU
- Kd (natural Bet v 1 [1]): 2.08 nM
- koff (natural Bet v 1 [1]): 0.000601 s⁻¹
- kon (natural Bet v 1 [1]): 289000 M⁻¹ s⁻¹
- t½ (natural Bet v 1 [1]): 19 min
- 100 nM natural Bet v 1 Bound (RU) (natural Bet v 1 [2]): 74 RU
- Kd (natural Bet v 1 [2]): 0.982 nM
- koff (natural Bet v 1 [2]): 0.000201 s⁻¹
- kon (natural Bet v 1 [2]): 205000 M⁻¹ s⁻¹
- t½ (natural Bet v 1 [2]): 58 min

B9: H4H16971P (antibody, human IgG4, V domains shown)
VH: QVQLVESGGGVVQPGRSLRLSCAASGFTFSSYGLHWVRQAPGKGLEWVAVISDDGSYKFYADSMKGRFTISRDNSKNTLYLQMNSLRAEDTAVYYCAKDRGRSGWYYFDYWGQGTLVTVSS
VL: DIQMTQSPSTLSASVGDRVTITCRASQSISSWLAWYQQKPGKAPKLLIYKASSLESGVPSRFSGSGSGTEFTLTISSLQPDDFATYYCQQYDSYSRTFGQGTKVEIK
- 100 nM natural Bet v 1 Bound (RU) (natural Bet v 1 [1]): 66 RU
- Kd (natural Bet v 1 [1]): 6.93 nM
- koff (natural Bet v 1 [1]): 0.00244 s⁻¹
- kon (natural Bet v 1 [1]): 352000 M⁻¹ s⁻¹
- t½ (natural Bet v 1 [1]): 4.7 min
- 100 nM natural Bet v 1 Bound (RU) (natural Bet v 1 [2]): 57 RU
- Kd (natural Bet v 1 [2]): 3.26 nM
- koff (natural Bet v 1 [2]): 0.000781 s⁻¹
- kon (natural Bet v 1 [2]): 240000 M⁻¹ s⁻¹
- t½ (natural Bet v 1 [2]): 15 min

B10: H4H17001P (antibody, human IgG4, V domains shown)
VH: QVQLVESGGGLVKPGGSLRLSCAASGFTFSDYYMNWIRQAPGKGLEWISLISSSGSAIYYSDSVKGRFTISRDNARKSLYLQVNSLRAEDTAVYYCARDRGEWALGAYYYGLDVWGQGTTVTVSS
VL: DIVMTQSPLSLPVTPGEPASISCRSSQSLLHSDGYNYLDWYLQKSGQSPQLLIYLGSNRASGVPDRFSGSGSGTDFTLKISRMEAEDVGVYYCMQALQTPYTFGQGTKLEIK
- 100 nM natural Bet v 1 Bound (RU) (natural Bet v 1 [1]): 87 RU
- Kd (natural Bet v 1 [1]): 2.52 nM
- koff (natural Bet v 1 [1]): 0.00122 s⁻¹
- kon (natural Bet v 1 [1]): 485000 M⁻¹ s⁻¹
- t½ (natural Bet v 1 [1]): 9.5 min
- 100 nM natural Bet v 1 Bound (RU) (natural Bet v 1 [2]): 71 RU
- Kd (natural Bet v 1 [2]): 1 nM
- koff (natural Bet v 1 [2]): 0.000329 s⁻¹
- kon (natural Bet v 1 [2]): 329000 M⁻¹ s⁻¹
- t½ (natural Bet v 1 [2]): 35 min

B11: H4H16950P (antibody, human IgG4, V domains shown)
VH: QVQLVQSGAEVKKPGASVKVSCKTSGYTFTNYGITWVRQAPGQGLEWMGWISAYNGNTNYAQNVQGRVTMTTDTSTSTAYMEVRSLRSDDTAVYYCARRSSMLHFQHWGQGTLVTVSS
VL: DIVMTQSPDSLAVSLGERATINCKSSQHVLYDSSNENYLAWFQQKPGQPPKLLIYWASTRESGVPDRFSGSGSGTDFTLTISSLQAEDVAVYYCQQYSSAPYTFGQGTKLEIK
- 100 nM natural Bet v 1 Bound (RU) (natural Bet v 1 [1]): 76 RU
- Kd (natural Bet v 1 [1]): 8.57 nM
- koff (natural Bet v 1 [1]): 0.00121 s⁻¹
- kon (natural Bet v 1 [1]): 141000 M⁻¹ s⁻¹
- t½ (natural Bet v 1 [1]): 10 min
- 100 nM natural Bet v 1 Bound (RU) (natural Bet v 1 [2]): 58 RU
- Kd (natural Bet v 1 [2]): 5.23 nM
- koff (natural Bet v 1 [2]): 0.000503 s⁻¹
- kon (natural Bet v 1 [2]): 96100 M⁻¹ s⁻¹
- t½ (natural Bet v 1 [2]): 23 min
